Source: paper PMC9942873 (Immunity, 2023)
Where a chain is given by its changes, count along the chain named.

B1: RUPA-53 (antibody, V domains shown)
VH: QVLLVQSGAEVKKPGASVKVSCKASGYTFLYHDISWVRQATGQGLEWMGWMNPNTGDTGYAQRFQGRVTMTRDMSISTAYLELGSLSSEDTAVYYCARGVGSYHGSGGWLDPWGQGTLVIVSS
VL: not shown
notes: human IgG1; source: recombinant human IgG1, 293T (Protein A purified) or GenScript
B2: RUPA-25 (antibody, V domains shown)
VH: QVQLVQSGAEVKKPGASVKVSCTASGYNFLTHDISWVRQATGQGLEWMGWMNPNTGKKGYVQKFQGRVTMDRDMSKSTAYMELRSLTSEDTAVYYCVRGVGSYYGSGGWFDPWGQGTLVTVSS
VL: QPVLTQPPSASETPGQKVTISCSGSSSNIGSDTVSWYVQLPGTAPKLLIYNDNQRPSGVPDRFSGSKSGTSASLAISGLQSEDEADYYCATWDASLKRRVFGGGTTLTVL
notes: as for B1
B3: RUPA-54 (antibody, V domains shown)
VH: QVQLVESGGGVVQPGRSLRLSCTASGFTFRSYGIHWVRQAPGKGLQWVAFISYDGRNKYYADSVKGRFTISRDNSKNTLYLQMSGLRADDTAVYYCAKDSDNDCTATSCYTVSWGQGTLVTVSS
VL: SYELTQPPSVSVSPGQTARITCSGDALPKKYAYWYQQKSGQAPVLVIYEDKKRPSGIPERFSGSSSGTMATLTISGAQVEDEADYYCYSTDSRTDHGGIFGGGTKLTVL
notes: as for B1
B4: RUPA-72 (antibody, V domains shown)
VH: EVQLVESGGGLVQPGGSLRLSCAASGFTFSYYWMHWVRQAPGKELVWVSRIKSDGSSGTTTDYADSVKGRFTISRDTAKNTLYLQMNSLRAEDTAVYYCARAGCSNGVCPPRYYYHGMDVWGQGTTVTVSS
VL: EIVLTQSPGTLSGSPGERATLSCRASQSIRSNYLAWYQQKPGQAPRLLIYGASSRATDIPARFSGSGSGTDFTLTISRLEPEDFAVYYCQHYGNSRVTFGQGTKVEIK
notes: as for B1
B5: RUPA-47 (antibody, V domains shown)
VH: QVQLVQSGAEVKKPGASVKLSCTASGYTFTNFGITWVRQAPGQGLEWMAWISVYSGDTDYAQRFQGRVTMTTDTSTRTAYMEMRSLSFDDTAVYYCVRGGRDSPILGGYWGQGTLVTVSS
VL: EIVLTQSPGTLSLSPGERVTLSCRASQSVRSMYLAWYQQKPGQAPRLLIHGASIRATGIPDRFSGSGSGTDFTLTISRLEREDFAVYYCHQYGSSPLTFGGGTKVESK
notes: as for B1
B6: RUPA-61 (antibody, V domains shown)
VH: QVQLVQSGAEVKKPGASVKVSCKASEDTFSSYYIHWVRQAPGQGLEWMGMMNPSGGGTRYTQKFQGRVTMTSDTSTSTVYMEVISLRSEDTAVYYCARVRKRDAYNNRNWGSVFGGMDVWGQGTTVTVSS
VL: QSALTQPPSASGSPGQSVSISCTGTSSDVGGHDYVSWYQHHPGKAPKLMIYEVSKRPSGVPDRFSGAKSGNTASLTVSGLQAEDEADYYCSSFGGSNNLVFGGGTKVTVV
notes: as for B1
B7: RUPA-29 (antibody, V domains shown)
VH: QVHLVESGGGVVQPGRSLRLSCAASGFTFRSYGMHWVRLAPGKGLEWVTAIWYDGSKKHFADSVKGRFTISRDNSKNTLYLQMSSLRVEDTAVYYCARDFAHGAFYPVDWGRGTLVTVSS
VL: SYELTQPPSVSVSPGQTARITCSGDALPKKHAYWYQQKSGQAPVLVIYDDSKRPSGIPERFSGSSSGTMATLSISGAQVEDEAAYYCYSSDTSANYWVFGGGTKLTVL
notes: as for B1
B8: RUPA-34 (antibody, V domains shown)
VH: EVQLVESGGGLIQPGGSLRLSCAASGFTVSSNYMSWVRQAPGKGLEWVSVIYSGGSGGSTYYADSVKGRFTISRDNLKNTLYLQMNNLRAEDAAVYYCVRDSRGWGYFDDWGQGTLVTVSS
VL: EVVLTQSPGTLSLSPGERATLSCRASQSIRTNYLAWYQQKPGQTPRLLIYGASSRATGIPDRFSGSGSGTDFTLTISRLEPEDFAVYFCQQYQNSPWTFGQGTKVEIK
notes: as for B1
B9: RUPA-86 (antibody, V domains shown)
VH: QVQLVQSGAEVKKPGASVKVSCKSSGFRFTGYYIHWVRQAPGQGLEWMGCINPNNGGTNYAQKFQGRVTMTRDTSITTAYMDLSRLKSDDTAVYYCARLVAYDQGLDVWGQGTTVTVSS
VL: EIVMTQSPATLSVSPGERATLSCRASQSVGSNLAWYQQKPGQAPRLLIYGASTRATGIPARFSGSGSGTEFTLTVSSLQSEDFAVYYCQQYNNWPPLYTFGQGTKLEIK
notes: as for B1
B10: RUPA-44 (antibody, V domains shown)
VH: QLQLQESGPGLVKPSETLSLTCTVSGGSISRSPYYWGWIRQPPGKGLEWFGSIYNNGSTYYNPPLKSRLTISVDTSKNQFSLKLSSVTAADTAVYYCARHGGSTGMKVVVIAPPDYWGQGTLVTVSS
VL: DIQMTQSPATLSASVGDRVTITCRASQSISSWLAWYQQKPGEAPKLLIYKASSLQSGVPSRFSGSGSGTKFSLTISSLQPDDFATFYCQQYHSYPYTFGQGTKLEIK
notes: as for B1
B11: RUPA-70 (antibody, V domains shown)
VH: QVQLQESGPGLVKPSQTLSLTCTVSGGSISIGGYYWSWIRQHPGKGLEWIGYIYYSGTTYYNPSLKSRVIISIDTSKNQFSLRLKSVTAADTAVYYCARTGLVAAIRGSRRGQQGDYFDYWGQGTLVPVSS
VL: SYELTQPPSVSVSPGQTASLTCSGDKLGDKYASWYQQKPGQSPVLVIHQDKKRPSGIPERFSGSNSGNTATLTISGTQAMDEADYYCQAWDSNTGVFGGGTKLTVL
notes: as for B1
B12: RUPA-42 (antibody, V domains shown)
VH: QVQLQESGPGLVKPSQTLSLTCTVSGGSISSGGYYWSWIRQHPGKGLEWIGYIYYSGTTYYHPSLESRVTISVDTSKNQFSLKLNSVTAADTAIYYCARAGLVAAIRGSRRGQQGDYFDHWGQGTLVTVSS
VL: B11 VL with L20I, D25E, K30R, A32V, V44L, I47L, M80L, Y86F, N93S
notes: as for B1
B13: RUPA-84 (antibody, V domains shown)
VH: QVQLVQSGAEVKKTGASVKVSCKASGYTFTSHDIIWVRQAAGQGLEWMGWMNPNTGKKGYAQKFQGRVTLTRNMSTGTAYMELNSLRSDDSAVYYCARGVGTYYGSEGWLDPWGQGTLVTVSS
VL: QSVLTQPPSASETPGQRVTISCSGSSSNVGSNSVNWYQQLPGTAPKLLMYNTNQRPSGVPDRFSGSKSGTSASLAISGLRSEDEADYYCATWDDSLKRGVFGGGTKLTVL
notes: as for B1
B14: RUPA-35 (antibody, V domains shown)
VH: QVQLVQSGAEVKKPGASVKVSCKASGYTFTSHDIIWVRQAPGQGLEWMGWMNPNIGDTGYAQKFQGRLSMTRKMSISTAYMELSSLRSEDTAVYYCSRGVGTYHGSGGWFDPWGQGTLVTVSS
VL: B13 VL with S26T, V29I, S33T, N35S, L40Y, N51S, T52D, R80Q, D86E
notes: as for B1
B15: RUPA-57 (antibody, V domains shown)
VH: QVQLVESGGGVVQPGRSLRLSCTASGFSFSDYGMHWVRQAPGKGLEWVAVISYHGRDKSYADSVKGRFTISRDNSKKTLYLQMNSLTAEDTALYYCAKSNDHYDNSGYFVYWGLGTKVTVSS
VL: SYELTQPPSVSVSPGQTATITCSGDALPKKFAFWYQQKSGQAPVLVIYEDTKRPSGIPERFSGSSSGTLATLTISGAQVEDEADYYCYSRDSSNTQRVFGGGTKVTVL
notes: as for B1
B16: RUPA-49 (antibody, V domains shown)
VH: QVQLVQSGAEVKKPGASVKVSCKASGYTFLYHDIIWMRQATGQGPEWMGWINPNTGNTGLAQKFQGRVSLTRNMSSGTAYMELRSLRSEDRAIYFCARGVGTYHGSGGWFDPWGQGTLVAVSS
VL: QSVLTQPPSASETPGQRVTLSCSGSSSNIGSHTVNWYRQLPGTAPKLLIHSDDQRPSGVPDRFSGSKSGTSASLAISGLQSEDEADYYCATWDDSLKRGVFGGGTKLTVL
notes: as for B1
B17: RUPA-41 (antibody, V domains shown)
VH: QVQLVQSGAELKKPGASVKVSCKASGYTFTSHDITWVRQAAGQGLEWMGWMNPNTGDKGYAQKFQGRVTLTRNMSTRTAYMELNSLTSEDTAVYYCARGVGTYHGAGGWFDPWGQGTLVTVSS
VL: QSVVTQPPSVSETPGQRVTISCSGSSSNIGSNIVSWYQQLPGTAPKLLIYSDTQRPSGVPDRFSASKSGTSASLAISGLHSEDEADYYCATWDDSLKRGVFGGGTKLTVL
notes: as for B1
B18: RUPA-50 (antibody, V domains shown)
VH: QVHLVESGGGVVQPGRSLRLSCAASGFTFRSYGMHWVRRVPGKGLEWVATISYDETFKDYPDSVKGRFTISRDNSKNTLFLQMNSLRPADTAVYYCAKDRAHSMHYFEYWGRGTLVTVSS
VL: SYELTQPPSVSVSPGQTARLTCSGDALPKKFAYWYQLKSGQAPVLVIYEDSKRPSGIPERFSGSSSGTTATLTISGAQVEDEADYYCYSRDGSGDQKNIFGGGTKLTVL
notes: as for B1

What was measured:
Experiment in all cases: ELISA
Conditions in all cases: both partners purified
[1] = biological target: recombinant full-length Pfs48/45 (Plasmodium falciparum 3D7, UniProt Q8I6T1)
[2] = biological target: Pfs48/45 D1-2 (Plasmodium falciparum 3D7, UniProt Q8I6T1)
[3] = biological target: Pfs48/45 D2-3 (Plasmodium falciparum 3D7, UniProt Q8I6T1)
[4] = biological target: Pfs48/45 D3 (Plasmodium falciparum 3D7, UniProt Q8I6T1)
Sequence of Pfs48/45 D3 (Q8I6T1 287-428): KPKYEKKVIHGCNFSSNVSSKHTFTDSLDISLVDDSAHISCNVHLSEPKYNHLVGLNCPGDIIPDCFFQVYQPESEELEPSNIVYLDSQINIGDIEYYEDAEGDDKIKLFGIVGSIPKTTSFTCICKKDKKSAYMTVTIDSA

Sequence of Pfs48/45 D1-2 (Q8I6T1 28-289): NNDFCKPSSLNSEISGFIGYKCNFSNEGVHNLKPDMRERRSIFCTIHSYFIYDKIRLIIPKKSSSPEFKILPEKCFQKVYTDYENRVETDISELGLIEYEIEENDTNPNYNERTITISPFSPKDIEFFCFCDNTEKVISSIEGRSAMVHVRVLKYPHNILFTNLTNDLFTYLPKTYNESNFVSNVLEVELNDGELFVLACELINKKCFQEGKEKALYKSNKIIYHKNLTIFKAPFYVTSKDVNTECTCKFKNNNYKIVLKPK
Sequence of Pfs48/45 D2-3 (Q8I6T1 184-428): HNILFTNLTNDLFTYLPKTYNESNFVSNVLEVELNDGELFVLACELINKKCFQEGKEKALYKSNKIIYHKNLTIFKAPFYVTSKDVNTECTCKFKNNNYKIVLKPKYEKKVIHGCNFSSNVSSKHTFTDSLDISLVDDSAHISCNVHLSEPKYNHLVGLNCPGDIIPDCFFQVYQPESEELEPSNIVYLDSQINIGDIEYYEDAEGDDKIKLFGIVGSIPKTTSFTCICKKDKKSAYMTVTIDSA
Sequence of recombinant full-length Pfs48/45 (Q8I6T1 28-428): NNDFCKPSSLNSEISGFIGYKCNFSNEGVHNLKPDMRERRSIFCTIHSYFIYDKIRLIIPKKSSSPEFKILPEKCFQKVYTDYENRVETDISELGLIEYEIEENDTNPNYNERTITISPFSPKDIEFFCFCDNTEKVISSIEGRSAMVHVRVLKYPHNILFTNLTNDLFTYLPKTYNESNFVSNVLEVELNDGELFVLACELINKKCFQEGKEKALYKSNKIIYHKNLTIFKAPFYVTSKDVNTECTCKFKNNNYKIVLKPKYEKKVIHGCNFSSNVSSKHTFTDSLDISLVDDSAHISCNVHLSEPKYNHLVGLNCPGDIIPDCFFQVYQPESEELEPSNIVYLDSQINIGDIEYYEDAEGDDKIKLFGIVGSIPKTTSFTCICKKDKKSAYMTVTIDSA

| Binder | binding result [1] | binding result [2] | binding result [3] | binding result [4] |
| --- | --- | --- | --- | --- |
| B1 | binds | binds | binds | – |
| B2 | binds | binds | binds | no binding (tested: 10 ug/ml) |
| B3 | binds | – | binds | binds |
| B4 | binds | – | binds | binds |
| B5 | binds | – | binds | binds |
| B6 | binds | – | binds | binds |
| B7 | binds | – | binds | binds |
| B8 | binds | binds | binds | no binding (tested: 10 ug/ml) |
| B9 | binds | binds | binds | – |
| B10 | binds | – | binds | binds |
| B11 | binds | – | binds | binds |
| B12 | binds | no binding (tested: 10 ug/ml) | binds | binds |
| B13 | binds | binds | binds | – |
| B14 | binds | binds | binds | – |
| B15 | binds | – | binds | binds |
| B16 | binds | binds | binds | – |
| B17 | binds | binds | binds | no binding (tested: 10 ug/ml) |
| B18 | binds | – | binds | binds |
